Earlier results on two substances are cited in PMC7070747.

One may read the Kd as the concentration at which binding is half-saturated.

Data set [1] has as its target integrin αvβ5 (Homo sapiens) (UniProt P06756).
Data set [2] concerns the target integrin αvβ3 (Homo sapiens) (UniProt P06756).
Data set [3] addresses Fibronectin extra domain B EDB (Homo sapiens) (UniProt P02751).
UniProt P02751, sequence (P02751 1266-1356): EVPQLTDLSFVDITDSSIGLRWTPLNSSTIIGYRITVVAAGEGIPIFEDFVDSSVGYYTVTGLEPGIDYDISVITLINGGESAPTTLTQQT

As to iRGD, the values for the Kd in data set [1] and in data set [2] were 62 nM and 18 nM, respectively.

Turning to ZD2, the Kd in data set [3] is 11000 nM.
